The DeepSol protein solubility set

experiment: soluble on expression in E. coli; label from the status in PepcDB or PDB records

| Sequence | soluble on expression in E. coli |
| --- | --- |
| MPTQFIRNRSAFPQGTNNDIDDFQYQNDFSSSSHQLPSTASGYSEHSSHQNFQNHSPPPGKATTDPLAGALLGLSDVITKSLISHPCGVLRRQCQVHQFAGSLHLTPVTLIPVICNSVAKQGIQTFWKGAIGSSVLWGLTNVTEIVLGDLMGLPRTFVVNGSAEKYWKHIVLKGVTFVTMTPFYISSFIETVRSESGIGGEDNKILDVLVKGVDRMRYFLTSGRDPSRRFSIIHLAIPTAGFQVGHYMLQTALYHQFFRMAKRYVNRKSPAEKTTYHDFLPQMFAQTSSMVLTDLILYPFETIVHRMYIQGTRTLIDNMDTGLSAVSMTVKYSGYFDCVRQVLETEGFWALYAGVGAVLLEYSLHQGLQQLVRACFDRGSELLRKATQGHPVVQSSQITPPISAKSSFNGPISNSFPSAGAALLSPMSTPRKHSTPPKDPTEFPTFGETVSQIGSPYQMPDRPNVFGSPPNRTRATHDSTQSLPPLQLNIRPSSGDPFSG | not soluble |
| MGSDKIHHHHHHMATVAFHTLGCKVNHYETEAIWQLFKEAGYERRDFEQTADVYVINTCTVTNTGDKKSRQVIRRAIRQNPDGVICVTGCYAQTSPAEIMAIPGVDIVVGTQDREKMLGYIDQYREERQPINGVSNIMKARVYEELDVPAFTDRTRASLKIQEGCNNFCTFCIIPWARGLLRSRDPEEVIKQAQQLVDAGYKEIVLTGIHTGGYGEDMKDYNFAKLLSELDTRVEGVKRIRISSIEASQITDEVIEVLDRSDKIVNHLHIPIQSGSNTVLKRMRRKYTMEFFADRLNKLKKALPGLAVTSDVIVGFPGETEEEFMETYNFIKEHKFSELHVFPYSKRTGTPAARMEDQVDENVKNERVHRLIALSDQLAKEYASQYENEVLEIIPEEAFKETEEENMFVGYTDNYMKVVFKGTEDMIGKIVKVKILKAGYPYNEGQFVRVVEDEITEHMRLSS | not soluble |
| MSLQTDDPMIVAHRAGTRDFPENTVLAITNAVAAGVDGMWLTVQVSSDGVPVLYRPSDLATLTDGAGPVNSKTVQQLQQLNAGWNFTTPGVEGHPYRQRATPIPTLEQAIGATPPDMTLFLDLKQTPPQPLVSAVAQVLTRTGAAGRSIVYSTNADITAAASRQEGLQVAESRDVTRQRLFNMALNHHCDPQPDPGKWAGFELHRDVTVTEEFTLGSGISAVNAELWDEASVDCFRSQSGMKVMGFAVKTVDDYRLAHKIGLDAVLVDSPLAAQQWRHEGHHHHHH | not soluble |
| SPSAEECGYSDRVRSITLGNSTITTQESANVVVGYGRWPEYLRDDEATAEDQPTQPDVATCRFYTLESVTWEKDSPGWWWKFPDALKDMGLFGQNMYYHYLGRAGYTIHVQCNASKFHQGCLLVVCVPEAEMGCSTVDGTVNEHGLSEGETAKKFSATGTNGTNTVQSIVTNAGMGVGVGNLTIFPHQWINLRTNNCATIVMPYINNVPMDNMFRHHNFTLMIIPFVPLNYSSDFSTYVPITVTVAPMCAEYNGLRLSTALQ | soluble |
| MKKFFQEIKADIKFKSAGPGQKLTDSAGEKTTKGKSPQLALRQPRQGPTDEAQMAAAAALARLEQKQPRARGPTSQDSIRNQVRKELQAEATSSNNPGAPGTNSVPEPKEEISPHLAVPGVFFICPLTGVTLRRDQRDAHIKQAILSHFSTDPVAASIMKIHTFNRDRDRVKLGVDTIAKYLDNIHLHPEEEKYQKIKLQNKVFQERINCLEGSHEFFEAIGFKKVTLPVPDQEGQEEFYVLGEDARAQPQNLARHKQQLLDAEPVRATLDRQLRVFRPSALASHFELPSDFFSLTAEEVKREQRLRTEAVERLSSLRTKAMREKEEQRELRKYTYALVRVRLPDGCLLQGTFYAREKLSALFRFVREALQNDWLPFELRASGGQKLEENEALALNECGLVPSALLTFSWDASVLEDIRAAGAEPAKSVLRPELLAAIEQLS | soluble |
| MSLEDSTATFETRNMYFNRDFRDGTSAQQSKRDEWAQGFILNFESGYTDGTVGFGLDALGMLGIKLDSSPDRTDSGLLPTHDDGKAADEYSKLGLTGKVKISQTELKIGTLIPELPTLQPNDGRILPQTFEGGLLTSKEIKGLTFTGGRIDKAKDRNDTNWEDLALNNKNGRFGGTFSADNLALGGLDYQFTDRITGSYHFAQLDDIYRQHFIGMVATQPWGPGTLGADLRLAMSDDAGAAKAGNIDNTTVNGMLSYALGGHKVSAAWQQLSGESAFPYVDGADPYLVNFVQINDFAGADERSWQARYDYNFAALGVPGLTFMTRYISGDNVSRAAGGEGKEWERNTELKYVVQSGPLKNVAVRLRNATFRSNFARDADEVRLLVSYSVALWEGHHHHHH | soluble |
| MKIGLIGAGVVGRAIATLAVRAGHQVMLSNSRGPHTLFSLRAAVGCAIGTVDEAAAFGDIGVVAVPLAAYRAVPAAALAGKVVIDTNNYYPERDGAIAELDDKRTTTSELLARHLPASRIVKAFNAITMTDLDRDGRPAGSPNRRALPVAGDDAKGKAIAIALLDAFGFDALDAGPLSQGWRFERGTPAYCVALTRDALEKTLAATTRLEHHHHHH | not soluble |
| MGKYFGTDGVRGVANKELTPELAFKIGRFGGYVLTKDTDRPKVIIGRDTRISGHMLEGALVAGLLSTGAEVMRLGVISTPGVAYLTKALDAQAGVMISASHNPVQDNGIKFFGSDGFKLTDEQEAEIEALLDKEVDELPRPTGTNLGQVSDYFEGGQKYLQYIKQTVEEDFSGLHIALDCAHGATSSLAPYLFADLEADISTMGTSPNGMNINDGVGSTHPEVLAELVKEKGADIGLAFDGDGDRLIAVDEKGNIVDGDQIMFICAKYMKETGQLKHNTVVSTVMSNLGFYKALEANGITSDKTAVGDRYVMEEMKRGGYNLGGEQSGHIILLDYITTGDGMLSALQLVNIMKMTKKPLSELAGEMTKFPQLLVNVRVTDKKLALENEKIKEIIRVVEEEMNGDGRILVRPSGTEPLIRVMAEAPTQEVCDAYVHRIVEVVKAEVGAE | not soluble |
| MEKNDIFVVIPAYNEEKMIKNTLINLKSHGYENIIVVDDGSRDNTSKIAISEEVIVCKHIINRGLGGALKTGLKCAVKYNPKVIVTFDADGQHDPEDIFKVSEPILEDSFDVVVGSRLIDENELKNMPLIKKIGNWGLNFITYLMGGRMVTDSQGGLRAFSYDAAEIVSKQLKSNRYEVSSEFIVLFKKNNLKFKEVPIKTIYTEYSMARGTNVITGFKILFKLLIQKLILEHHHHHH | soluble |
| MPNLNAVIAQNISKGDVIWVPYRKDPMWPALVNNAYPKKVSYSFFPLAPGVDETKRSRFSCAPKLTYALVTTEPLPENANSDLKKAHRAACEYLSSNGKTRGSNIQSLGEAAGGSEKMKKMNGEVTKNKTGKPEKRKKKVDSEQQENEEDDEDLMSPVSKKPSSSERSTPSGSQQQPPITEEQSKSMMKMIDDRFEVLINEIWKSDEVAQSKNQTMKDKMTIKLKNNQFLKESDYDIVFERIFNFIRMQNPSLSFISTFNITSSHIIPHILITCYSACRNLDYQTSKEIFYQLNTRVLGLDSSMSIPVTDHLEELCRLACDESDAIQILENEHGDKISKDGTATQTRGNVFEEMR | not soluble |
| VILKEEFRGVIIKQGCLLKQGHRRKNWKVRKFILREDPAYLHYYDPAGAEDPLGAIHLRGCVVTSVESNSNGRKSEEENLFEIITADEVHYFLQAATPKERTEWIKAIQMASRTGK | soluble |
| MAHHHHHHMEGDISSSAFVCGFTAHRAHPLSPISDIRDLCVPRTSTPSASSHALAQALSFPRRPLPHRLLASCLLITTTNRFQAHCSRSAATQPPPPLPCGTTTEREYGWDGLAVFLSADSRVFRSPFSTIVSRFSPFVAAMSDRDVPASMTRTCAPPKAHFLFCSTDARNAAPASNGDVAKLPAPKKPISAPLTPFQSPVDTHRDRHSSRHASPPRQLGRPLPPTQPSFSDVAKRMGSFNDMCEANSLLSSHVRLGEMSTLGISASTSTIPAGSSGSTTSLHWLRIAEDRVMPHPSSTKPAPAALQRNAEYVLERWVEQKVHRTAAMDDAMMKVAAAFDELYA | soluble |
| MLDRFATKQTQEKLKIGVVGVFAIGCLFPLLSDFKRSYPHIDLHISTHNNRVDPAAEGLDYTIRYGGGAWHDTDAQYLCSALMSPLCSPTLASQIQTPADILKFPLLRSYRRDEWALWMQTVGEAPPSPTHNVMVFDSAVTMLEAAQAGMGVAIAPVRMFTHLLSSERIVQPFLTQIDLGSFWITRLQSRPETPAMREFSRWLTGVLHKTSGSHHHHHH | soluble |
| MGAAMGPALAVDAAQEAPTADNSPAVEAPQTPEEGEQSAQTSQDNPRYESQIVRAGHSAEAEQVGDVSEDTIFEYSEFDIPEGWFVSVDEDSGKVTVSTPPDAQDGDNYTVKVKAVDLDGNVTWSEVTFTVGDPETDNPEIEPLDADAPEVELPAAE | not soluble |
| MGSDKIHHHHHHMKIGIIGAGRVGCSIGKYLRTKDIELAGYYDVDSAAAKEAAEFTRTESFDSLKQLADQSQIIFITTPDSFIIPVWEQLKELSLTNQIICHCSGALSSDSFSGRESMSVSCCSIHPMLPFSNKFSSYEQLNKAFFTVEGQDAAVEAISGLFCSIGNEVCRIDGAKKAKYHAAASILSNQVIAVLDMGYSLLEDCGFTRAEAVRATGQLVMRNIENVLEAGCDGALTGPIERNDIETVKKHIACMQNDDSDDVRLYKMLGTKLVNIAEKKNPDKDYTQMMELLRG | not soluble |
| GPGSMADFPKLARIKLDDENMEKIHCAARKGQTEEVKRLVEQGIDPAIPNRFGCTALHLACKHGQIETAKYLSSICDVHGAWHGQRPLHLAVLSNKEVLVEALVEGARERGRNVEIMLNECDDVSVDDIGEHQKHTDGQTALHWCVALGDNYLPMLRLLIRLGASPTAKNKENVTSMMYAMEFKNEAAMEEMVKGVKPQQLRLDYQDKEGRTHLHYAILHNRQDYAMRFIEMGHDPQMEDDNHETPLFLALRAAMPDLLTYLLQNVDSFSVQQAPFHNGSVMVAERIQWLEFATDEQARTECIRLFQKRLDEVSFRPEETEKKRAKPTVKKMKLAPSAPLRSRSIGNASALRSRSIGGRISGK | soluble |
| MSATAKAPYSKTFIRSCILYEVLQKKPVFEAYQKICRSLKERISYQEFDYWFYKFYNGNHDLEDEISDEQSLVNPLLDMSNNLSEKEWCRSFVQFFHGLPPRPNKKPAFSLQSMPRKVWQELCSKLEPCDRLVAKKVTRRFRQTIDEQDNLFNTLGICFEDDKTRIFFNEKTFHYTSVGNECRITLDLFTKEDAIKIKDILTRSDNFKYANFESGNFDPIEIANVFIPNYQSNHWPIINYMRHNKKFLLKITPMTFQIKKID | not soluble |
| GSIGLEAEIETTTDETDDGTNTVSHILNVLKDATPIEDVFSFNYPEGIEGPDIKYKKEHVKYTYGPTFLLQFKDKLNVKADAEWVQSTASKIVIPPGMGR | soluble |
| MGYIEELRKIVGTRPLILAGVGVAVIDDYGRILLQKRRDGLWGVPGGLLELGESTEEAARREVLEETGLEIGELELIDVFSGQKYFVRLPNGDQYYPVTIVYCTRDIRGGELGEDGKESLEVKFFFLHELPNELSPLFQDLVEHYFGS | soluble |
| MRGLSRRVQAMKPDAVVAVNAKALELRRQGVDLVALTAGEPDFDTPEHVKEAARRALAQGKTKYAPPAGIPELREALAEKFRRENGLSVTPEETIVTVGGSQALFNLFQAILDPGDEVIVLSPYWVSYPEMVRFAGGVVVEVETLPEEGFVPDPERVRRAITPRTKALVVNSPNNPTGAVYPKEVLEALARLAVEHDFYLVSDEIYEHLLYEGEHFSPGRVAPEHTLTVNGAAKAFAMTGWRIGYACGPKEVIKAMASVSRQSTTSPDTIAQWATLEALTNQEASRAFVEMAREAYRRRRDLLLEGLTALGLKAVRPSGAFYVLMDTSPIAPDEVRAAERLLEAGVAVVPGTDFAAFGHVRLSYATSEENLRKALERFARVLGRA | soluble |
| MFDSLAKAGKYLGQAAKLMIGMPDYDNYVEHMRVNHPDQTPMTYEEFFRERQDARYGGKGGARCC | soluble |
